Results published in publication doi:10.1101/2022.01.09.475535 (bioRxiv, 2022).
Substitutions are numbered along the chain they refer to. Numbers in names are those of the source.

B1: U2AF2 UHM (U2AF homology motif domain of U2AF2) (domain or fragment)
chain: TEVLCLMNMVLPEELLDDEEYEEIVEDVRDECSKYGLVKSIEIPRPVDGVEVPGCGKIFVEFTSVFDCQKAMQGLTGRKFANRVVVTKYCDPDSYHRRDFW
B2: U2AF2 UHM K453A (domain or fragment)
chain: B1 chain with K79A

Biological target: T1, SF3B1 ULM5 peptide (residues 333-351), wild type (human, UniProt O75533-1 333-351)
T1 peptide: KRKSRWDETPASQMGGSTP
Experiment: ITC

| Binder | fold increase of affinity against the ULM5 peptide with the longer N-terminus | fold decrease of affinity against the wild-type U2AF2 UHM |
| --- | --- | --- |
| B1 | 2 fold | – |
| B2 | – | 4 fold |
